From publication PMC5806882, “Structural and biochemical characterization of the biuret hydrolase (BiuH) from the cyanuric acid catabolism pathway of Rhizobium leguminasorum bv. viciae 3841” (PLoS ONE, 2018)

Assays:
[1] = target: the molecule itself; experiment: crystal structure; X-ray structures of BiuH and variants; sitting drops at 20 °C; SeMet SAD, variants by molecular replacement; homotetramer in the asymmetric unit
[2] = target: the molecule itself; experiment: SEC; Superdex 200 preparation grade, 130 mL column; 50 mM HEPES pH 7.5, 100 mM NaCl, later 50 mM Tris pH 7.5, 100 mM NaCl; elution compared with sizes expected for monomer, dimer, tetramer and octamer of BiuH

Protein | stoichiometry N [1] | stoichiometry N [2]
BiuH Cys175Ser (enzyme, Biuret hydrolase BiuH, Rhizobium leguminosarum bv. viciae 3841, UniProt Q1M7F4, with Cys175Ser; Crystallised without (6AZN) and with biuret (6AZQ); also called C175S; Cys175Ser BiuH variant; source: E. coli BL21 (λDE3), purified (Ni-NTA, SEC)) not shown | 4 | 
BiuH Lys142Ala with N-carbamoyl-D,L-aspartic acid (enzyme, acyl (thiocarbamate) covalent complex between the deaminated inhibitor N-carbamoyl-D,L-aspartic acid and Cys175, Biuret hydrolase BiuH, Rhizobium leguminosarum bv. viciae 3841, UniProt Q1M7F4, with Lys142Ala; also called K142A; Lys142Ala variant; source: E. coli BL21 (λDE3), purified (Ni-NTA, SEC)) not shown | 4 | 
BiuH Lys142His (enzyme, Biuret hydrolase BiuH, Rhizobium leguminosarum bv. viciae 3841, UniProt Q1M7F4, with Lys142His; also called K142H; source: E. coli BL21 (λDE3), purified (Ni-NTA, SEC)) not shown | 4 | 
SeMet BiuH wild-type (seleno-L-methionine biuret hydrolase from Rhizobium leguminosarum bv. viciae 3841) (enzyme, selenomethionine in place of methionine, Biuret hydrolase BiuH, Rhizobium leguminosarum bv. viciae 3841; synthetic gene encoding a protein identical to UniProt Q1M7F4; His-tag removed in situ with chymotrypsin, without further purification; also called biuret amidohydrolase; source: E. coli BL21 (λDE3), minimal medium with SeMet, purified (Ni-NTA, SEC); in situ chymotrypsin treatment in the crystallisation drop) not shown | 4 | 
BiuH wild type (biuret hydrolase from Rhizobium leguminosarum bv. viciae 3841) (enzyme, Biuret hydrolase BiuH, Rhizobium leguminosarum bv. viciae 3841; synthetic gene encoding a protein identical to UniProt Q1M7F4; Size exclusion followed Ni-NTA directly in the purification, so the tag was probably still on the protein; also called BiuH WT; biuret amidohydrolase; source: E. coli BL21 (λDE3), purified (Ni-NTA, SEC)) not shown |  | 4
